This note sets out measurements from patent US20220153864A1 (Pieris, published 2022).

The term EC50 denotes the concentration giving half of the maximal effect. Usually EC50 (read off the curve) stands for the concentration that produces a half-maximal response. A lower EC50 (read off the curve) goes with higher potency in that assay.

Test [1] deals with T1, human CD137 expressed on cells (Flp-In-CHO::huCD137; NFkB-luc2/CD137 Jurkat cells) (human, UniProt Q07011 24-255).
T1 construct: whole, on cells; also called human CD137-expressing cells
T1 sequence (Q07011 24-255): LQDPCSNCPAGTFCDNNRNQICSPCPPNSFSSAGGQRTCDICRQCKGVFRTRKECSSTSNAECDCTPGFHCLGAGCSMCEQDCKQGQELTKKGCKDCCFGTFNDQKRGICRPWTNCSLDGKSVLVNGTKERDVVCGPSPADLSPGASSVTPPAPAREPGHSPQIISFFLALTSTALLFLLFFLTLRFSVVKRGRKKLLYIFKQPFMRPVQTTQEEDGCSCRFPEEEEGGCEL
Description: flow cytometry on Flp-In-CHO::huCD137 cells, anti-human IgG detection. On the procedure:
(§1) For flow cytometric analysis, respective cell lines were incubated with an exemplary fusion protein (SEQ ID NOs: 87 and 82), the GPC3 antibody or the CD137 specific lipocalin mutein (Fc fusion) as included in the fusion protein (SEQ ID NOs: 81 and 82 and SEQ ID NO: 98, respectively), a reference CD137 antibody SEQ ID NOs: 26 and 27, or an isotype control (SEQ ID NOs: 24 and 25) and detected using a fluorescently labeled anti-human IgG antibody in FACS analysis as described in the following:
(§2) 5×10⁴ cells per well were incubated for 1 h in ice-cold PBS containing 5% fetal calf serum (PBS-FCS). A dilution series of the testing molecule were added to the cells and incubated for 1 h on ice. Cells were washed twice with PBS and then incubated with a goat anti-hlgG Alexa647-labeled antibody or goat anti-hlgG Alexa488-labeled antibody for 30 min on ice. Cells were subsequently washed and analyzed using iQue Flow cytometer (Intellicyte Screener). Mean geometric fluorescent signals were plotted and fitted with Graphpad software. The geometric means of the fluorescence intensity were used to calculate EC₅₀ values using a four-parameter logistic regression with bottom fixed to background.
In general terms: In flow cytometry, cells or beads pass a laser one at a time.

Test [2] addresses recombinant cynomolgus GPC3 (cyGPC3) (R&D Systems) (cynomolgus, UniProt A0A2K5VK50 24-558). Description: ELISA, cyGPC3 coated. The protocol: (§3) Recombinant huGPC3 (R&D Systems) at the concentration of 1 μg/mL in PBS was coated overnight on microtiter plates at 4° C. After five washes with 100 μL PBS-0.05% T (PBS supplemented with 0.05% (v/v) Tween 20), the plates were blocked with 2% BSA (w/v) in PBS-0.1% T (PBS-0.1% T-2% BSA) for 1 h at room temperature. After washing with 100 μL PBS-0.05% T (PBS supplemented with 0.05% (v/v) Tween 20) five times, exemplary fusion proteins (SEQ ID NOs: 87 and […] and CD137Ac1-Fusion 1 to 7) or the GPC3 antibody as include in the fusion proteins (SEQ ID NOs: 81 and 82) at different concentrations were added to the wells and incubated for 1 h at room temperature, followed by another wash step. Bound molecules under study were detected by incubation with 1:5000 diluted anti-human IgG Fc-HRP (Jackson Laboratory) in PBS-0.1% T-2% BSA. After an additional wash step, fluorogenic HRP substrate (QuantaBlu, Thermo) was added to each well and the fluorescence intensity was detected using a fluorescence microplate reader.
The same ELISA setup was also employed to determine the binding potency of fusion proteins to cynomolgus GPC3 and huCD137, where recombinant cyGPC3 (R&D Systems) or huCD137-His (recombinant human CD137 with C-terminal polyhistidine tag, R&D Systems) was instead coated on a microtiter plate. The testing agents were similarly titrated and bound agents were detected via anti-NGAL-HRP. […]

The target in test [3] is T2, recombinant human GPC3 (huGPC3) (R&D Systems) (human, UniProt P51654 25-559).
T2 construct: also called biotinylated huGPC3
T2 sequence (P51654 25-559 limits assumed): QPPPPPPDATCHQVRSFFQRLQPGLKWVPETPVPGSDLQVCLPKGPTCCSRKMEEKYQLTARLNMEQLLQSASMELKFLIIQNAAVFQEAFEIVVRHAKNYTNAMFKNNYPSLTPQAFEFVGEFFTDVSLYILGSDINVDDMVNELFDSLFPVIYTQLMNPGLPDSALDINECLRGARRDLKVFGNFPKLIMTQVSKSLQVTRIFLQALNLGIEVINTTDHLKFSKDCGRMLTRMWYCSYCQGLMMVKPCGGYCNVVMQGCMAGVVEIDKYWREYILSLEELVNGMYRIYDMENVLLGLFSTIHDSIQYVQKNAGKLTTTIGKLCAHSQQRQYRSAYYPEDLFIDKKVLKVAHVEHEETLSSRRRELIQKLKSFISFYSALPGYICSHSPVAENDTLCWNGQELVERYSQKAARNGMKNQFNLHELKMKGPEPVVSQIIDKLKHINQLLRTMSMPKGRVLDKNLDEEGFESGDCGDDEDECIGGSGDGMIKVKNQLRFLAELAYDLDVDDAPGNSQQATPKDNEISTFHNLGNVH
Nature of the test: ELISA, huGPC3 coated, detection anti-human IgG Fc-HRP. The protocol:
as §3
Exemplary results are depicted in FIG. 2A-2D, together with the fit curves resulting from a 1:1 binding sigmoidal fit, where the EC₅₀ value and the maximum signal were free parameters, and the slope was fixed to unity.
A general note: In an ELISA, binding on a coated surface is turned into a signal by an enzyme label.

In test [4] the target is T3, human GPC3 expressed on cells (SK-Hep1::huGPC3; HepG2, Hep3B and MKN-45 tumor cells) (human, UniProt P51654 25-554).
T3 construct: whole, on cells; also called GPC3-positive tumor cells; human GPC3-expressing cells
T3 sequence (P51654 25-554 limits assumed): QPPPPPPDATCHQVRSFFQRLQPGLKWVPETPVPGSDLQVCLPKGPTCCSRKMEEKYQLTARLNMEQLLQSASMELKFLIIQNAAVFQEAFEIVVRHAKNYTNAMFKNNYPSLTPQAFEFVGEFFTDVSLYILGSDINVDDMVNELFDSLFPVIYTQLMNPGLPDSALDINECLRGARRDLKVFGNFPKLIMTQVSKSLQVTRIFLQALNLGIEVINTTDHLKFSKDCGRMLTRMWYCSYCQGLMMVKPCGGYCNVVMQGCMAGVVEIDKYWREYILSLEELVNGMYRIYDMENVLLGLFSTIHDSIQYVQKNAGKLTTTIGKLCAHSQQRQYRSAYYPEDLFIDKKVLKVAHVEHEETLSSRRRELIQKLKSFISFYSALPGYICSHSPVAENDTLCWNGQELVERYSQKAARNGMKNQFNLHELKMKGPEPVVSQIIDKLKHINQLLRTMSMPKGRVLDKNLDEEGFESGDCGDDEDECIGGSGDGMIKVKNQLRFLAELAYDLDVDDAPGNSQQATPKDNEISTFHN
Description: flow cytometry, SK-Hep1 cells transfected with human GPC3, detection labelled anti-human IgG, GeoMean RL1-H [upper graph]. The protocol: as §1, §2

B1: fusion protein SEQ ID NOs: 87 and 82 (bispecific antibody, human IgG4 S228P, kappa, F234A L235A)
heavy: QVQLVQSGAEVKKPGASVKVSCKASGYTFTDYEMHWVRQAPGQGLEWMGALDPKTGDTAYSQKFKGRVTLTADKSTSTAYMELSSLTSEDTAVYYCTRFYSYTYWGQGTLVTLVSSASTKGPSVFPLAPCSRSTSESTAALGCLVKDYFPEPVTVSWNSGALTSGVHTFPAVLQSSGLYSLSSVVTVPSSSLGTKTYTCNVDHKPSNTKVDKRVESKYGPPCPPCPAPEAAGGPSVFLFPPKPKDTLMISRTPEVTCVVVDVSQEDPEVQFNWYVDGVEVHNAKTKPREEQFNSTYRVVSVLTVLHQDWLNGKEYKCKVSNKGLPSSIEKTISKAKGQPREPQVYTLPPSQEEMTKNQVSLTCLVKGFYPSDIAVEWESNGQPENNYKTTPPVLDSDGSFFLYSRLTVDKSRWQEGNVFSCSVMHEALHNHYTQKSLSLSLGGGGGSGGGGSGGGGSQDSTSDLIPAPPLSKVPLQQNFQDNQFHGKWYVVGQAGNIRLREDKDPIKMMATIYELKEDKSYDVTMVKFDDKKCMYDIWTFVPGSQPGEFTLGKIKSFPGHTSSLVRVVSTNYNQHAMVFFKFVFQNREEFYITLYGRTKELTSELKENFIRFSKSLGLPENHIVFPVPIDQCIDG
light: DVVMTQSPLSLPVTPGEPASISCRSSQSLVHSNRNTYLHWYLQKPGQSPQLLIYKVSNRFSGVPDRFSGSGSGTDFTLKISRVEAEDVGVYYCSQNTHVPPTFGQGTKLEIKRTVAAPSVFIFPPSDEQLKSGTASVVCLLNNFYPREAKVQWKVDNALQSGNSQESVTEQDSKDSTYSLSSTLTLSKADYEKHKVYACEVTHQGLSSPVTKSFNRGEC
notes: also called exemplary fusion protein
Regarding B1, the EC50 was determined as 13.1 nM in test [1], 0.34 nM in test [2] and 0.19 nM in test [3]. Also, the “EC50 (read off the curve)” value in test [4] was roughly 5 nM.
